# Test results taken from the supplement of paper PMC9732359.
# ± gives the uncertainty stated by the source.
# Experiment: protein stability index of a GFP-peptide fusion (yeast GPS) (PSI 1-4); higher = more stable; sorted into four equal gates, so the index is relative within each strain
# Summary of the method: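 Sequencing reads from sorted gates were used to score each peptide. The library consisted of tiled 17-residue yeast protein peptides fused downstream of GFP on a Cherry-expressing plasmid, pooled and carried in yeast. Mid-log cultures in leucine-free medium were split into four equal gates by GFP/Cherry ratio, and each gate's plasmids were PCR-amplified and Illumina-sequenced. The protein stability index adds up, over all gates, the read frequency multiplied by the gate number.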
Sequence,protein stability index (doa10∆),protein stability index (pdr5∆),protein stability index (ubr1∆),protein stability index (san1∆)
GVHDGEVEPALLLLQDY [RPN1],3.13 ± 0.2,3.46 ± 0.17,2.44 ± 0.24,
IHSLIPVAKWFVKFITY [SIN4],2.7 ± 0.048,2.52 ± 0.04,2.79 ± 0.04,2.77 ± 0.044
ELESITESITHDSSNGL [NUT1],2.95 ± 0.1,3.27 ± 0.074,3.2 ± 0.067,3.25 ± 0.051
FEAQIDSVEFIFQAKRN [RPN10],2.32 ± 0.11,2.67 ± 0.082,2.66 ± 0.1,2.45 ± 0.13
YKEIRDVSRVAAVETLY [RPL20A],1.95 ± 0.067,2.19 ± 0.081,1.64 ± 0.069,1.75 ± 0.17
MNAILTDVKLTLPQPRL [SMD1],2.98 ± 0.079,2.96 ± 0.097,3.11 ± 0.076,2.65 ± 0.079
YEDEELSRAEYDSDSDS [LIN1],3.19 ± 0.1,3.33 ± 0.087,3.23 ± 0.055,3.08 ± 0.057
VDAYRRLENKLSEIESL [SRP68],1.4 ± 0.078,1.48 ± 0.073,1.68 ± 0.062,1.57 ± 0.11
DNLLEMSDHSLDKLNCA [RRP6],3.28 ± 0.099,3 ± 0.068,3.25 ± 0.049,3.22 ± 0.1
DGVTHALYPQEARLRNL [RPB2],3.22 ± 0.27,3.06 ± 0.22,,3.23 ± 0.13
ADLMALENATWTMRIEG [SNF12],2.94 ± 0.11,3.05 ± 0.13,3.07 ± 0.081,3.17 ± 0.12
APIPKQLLQRIPNIPPN [GAL11],2.69 ± 0.063,2.63 ± 0.066,2.54 ± 0.049,2.6 ± 0.07
ADKPFTRLTAYQELAYR [YML031W/NDC1],2.52 ± 0.12,3.17 ± 0.11,3 ± 0.098,3.06 ± 0.18
HFVQEEPLAFYLEESFT [RGR1],2.32 ± 0.044,2.43 ± 0.039,2.69 ± 0.031,2.67 ± 0.04
VTDKYTAKKTNRSAYDS [YDL088C/ASM4],2.81 ± 0.089,3.26 ± 0.081,2.79 ± 0.043,2.96 ± 0.14
NNNNNNNNNSTRPQMPS [GRR1],2.891 ± 0.019,3.041 ± 0.017,3.027 ± 0.018,3.062 ± 0.018
MTQRAIQSAESIKSQKE [SWI3],2.27 ± 0.12,1.74 ± 0.082,1.7 ± 0.13,2.5 ± 0.14
SSGQDKKKKKGSNQKPK [RPT2],3.08 ± 0.21,2.92 ± 0.28,3.1 ± 0.15,
MAVKTGIAIGLNKGKKV [RPL36B],,1.49 ± 0.2,,
GNDNLIKAPTVAADGKL [YLR335W/NUP2],2.46 ± 0.097,2.93 ± 0.09,2.95 ± 0.072,2.56 ± 0.077
QAVETVGQAGRPKKITG [RPN1],1.99 ± 0.06,2.74 ± 0.095,2.45 ± 0.056,2.31 ± 0.12
LQEAIDFAQKEINGDDD [PRE10],2.96 ± 0.087,3 ± 0.079,2.96 ± 0.076,3.23 ± 0.067
EAINGFKDETISKKIIG [SIR3],3.08 ± 0.065,3.19 ± 0.057,3.09 ± 0.063,2.95 ± 0.082
FIKEIHKSIELISNLLF [YCS4],1.89 ± 0.047,2.16 ± 0.051,2.46 ± 0.034,2.48 ± 0.052
TEQFCATLNYIDKNHGF [SRB7],2.26 ± 0.055,2.99 ± 0.061,2.47 ± 0.052,3.2 ± 0.057
PEIPLVVSTDLESIQKT [RPL4A],2.96 ± 0.071,3.05 ± 0.086,2.81 ± 0.062,3.16 ± 0.052

Sequence,protein stability index (doa10∆),protein stability index (pdr5∆),protein stability index (ubr1∆),protein stability index (san1∆)
IEEQGWGGFPLDISVFL [TAF14],3.38 ± 0.063,3.4 ± 0.053,3.33 ± 0.047,3.35 ± 0.048
KDMKLLRYYKNIWLNNK [NUT1],2.01 ± 0.065,1.65 ± 0.074,1.28 ± 0.054,1.97 ± 0.15
SNGIFYGPSFTKRESLN [SIR2],2.85 ± 0.065,2.83 ± 0.045,3.07 ± 0.039,2.65 ± 0.056
SDEEEVTEMSNNANVLG [BRR2],3.03 ± 0.065,3.1 ± 0.049,3.17 ± 0.046,2.83 ± 0.063
SHVENLEEKLYQMQSNY [YIL149C/MLP2],2.45 ± 0.051,2.84 ± 0.05,2.86 ± 0.044,2.54 ± 0.05
NSSNYFGELQFAFLNAM [AAR2],2.86 ± 0.088,2.94 ± 0.071,2.89 ± 0.054,2.69 ± 0.071
LRLLLLLIEFPYLPKHY [YJR042W/NUP85],1.81 ± 0.052,1.72 ± 0.054,1.76 ± 0.047,1.55 ± 0.062
DSLNDDLNKENKLLRRK [YIL149C/MLP2],2.98 ± 0.21,3.24 ± 0.18,3.31 ± 0.065,3.01 ± 0.15
VTKGGTVENPLRNWEEL [PRP28],2.55 ± 0.073,2.71 ± 0.1,2.89 ± 0.057,3.33 ± 0.055
SKNAERKWAARAASAKI [RPS8A],3.135 ± 0.03,3.212 ± 0.028,3.219 ± 0.026,3.173 ± 0.022
NTSFSFTKPPANETDKR [YOR098C/NUP1],3.08 ± 0.075,3.11 ± 0.049,3.15 ± 0.045,3.07 ± 0.046
FFTNPNKKRPSSKKVFS [YOR098C/NUP1],2.85 ± 0.059,3.1 ± 0.054,3 ± 0.05,3.06 ± 0.046
EENGDSIKEHSTTMDGA [MED1],3.32 ± 0.19,,3.57 ± 0.14,3.21 ± 0.14
NTLVRPNGTKKAYVRLT [RPL25],,,3.35 ± 0.15,3.03 ± 0.17
KYACLAIRKNGQIDFWY [SIN4],1.98 ± 0.067,2.16 ± 0.077,2.39 ± 0.045,2.08 ± 0.071
DLSEKILNDIETLEHNP [BRR2],3.06 ± 0.055,3.21 ± 0.07,3.13 ± 0.043,3.05 ± 0.055
GYVETPRGLRSLTTVWA [RPL3],1.75 ± 0.29,,,
SHVNKYGLIRGLKFASF [PRP8],1.83 ± 0.067,1.85 ± 0.065,1.34 ± 0.03,1.91 ± 0.089
QAINLGQVVLTPLTFAL [RPL14A],1.53 ± 0.065,1.43 ± 0.049,1.35 ± 0.067,1.25 ± 0.09
VTDNKTPEMNVTNNVEE [TAF14],3.28 ± 0.17,3.27 ± 0.12,3.2 ± 0.17,3.35 ± 0.13
ENCLNNDPEILKKIASI [SWI1],2.48 ± 0.11,2.08 ± 0.074,2.71 ± 0.092,2.48 ± 0.1
TCSSDQHIKVFKLDKDT [YGL100W/SEH1],3 ± 0.098,3.07 ± 0.087,3.43 ± 0.097,3.46 ± 0.087
QFNEFIQIMANIDQEGS [PGD1],2.29 ± 0.073,2.37 ± 0.067,2.54 ± 0.049,2.33 ± 0.072
NVRDDMKPSDNISTNTN [SSN2],3.1 ± 0.045,2.94 ± 0.049,3.04 ± 0.053,2.88 ± 0.051
EKPDNSNHNNLNLNNSE [SNF2],3.02 ± 0.043,3.19 ± 0.051,3.17 ± 0.034,3.15 ± 0.036
